T1: human MAdCAM protein (human, UniProt Q13477 19-317)
T1 construct: used for Octet, SPR, ELISA and plate capture; construct not described; also called recombinant human MAdCAM; soluble monomeric human MAdCAM
T1 sequence (looked up): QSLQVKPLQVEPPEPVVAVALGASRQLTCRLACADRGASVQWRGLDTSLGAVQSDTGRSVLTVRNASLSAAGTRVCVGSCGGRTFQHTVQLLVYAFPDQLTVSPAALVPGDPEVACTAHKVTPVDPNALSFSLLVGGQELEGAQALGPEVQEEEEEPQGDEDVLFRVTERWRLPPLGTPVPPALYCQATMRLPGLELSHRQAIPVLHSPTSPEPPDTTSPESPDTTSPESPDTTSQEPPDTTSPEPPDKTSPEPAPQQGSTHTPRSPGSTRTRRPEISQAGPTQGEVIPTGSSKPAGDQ

T2: mouse MAdCAM protein (mouse, UniProt Q61826 22-365, limits assumed)
T2 construct: also called recombinant mouse MAdCAM-1; mMAdCAM-1
T2 sequence (looked up): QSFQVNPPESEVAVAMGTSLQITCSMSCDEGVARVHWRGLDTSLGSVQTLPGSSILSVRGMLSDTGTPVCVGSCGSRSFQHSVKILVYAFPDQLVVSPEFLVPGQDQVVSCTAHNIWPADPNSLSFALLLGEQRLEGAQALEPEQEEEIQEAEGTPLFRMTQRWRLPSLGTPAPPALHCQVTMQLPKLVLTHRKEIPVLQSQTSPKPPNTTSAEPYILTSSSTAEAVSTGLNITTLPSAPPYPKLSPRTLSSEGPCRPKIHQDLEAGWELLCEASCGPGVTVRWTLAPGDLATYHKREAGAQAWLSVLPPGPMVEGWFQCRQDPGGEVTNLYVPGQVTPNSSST

T3: mouse MAdCAM expressed on cells (mouse, UniProt Q61826 22-405)
T3 construct: whole, on cells
T3 sequence (looked up): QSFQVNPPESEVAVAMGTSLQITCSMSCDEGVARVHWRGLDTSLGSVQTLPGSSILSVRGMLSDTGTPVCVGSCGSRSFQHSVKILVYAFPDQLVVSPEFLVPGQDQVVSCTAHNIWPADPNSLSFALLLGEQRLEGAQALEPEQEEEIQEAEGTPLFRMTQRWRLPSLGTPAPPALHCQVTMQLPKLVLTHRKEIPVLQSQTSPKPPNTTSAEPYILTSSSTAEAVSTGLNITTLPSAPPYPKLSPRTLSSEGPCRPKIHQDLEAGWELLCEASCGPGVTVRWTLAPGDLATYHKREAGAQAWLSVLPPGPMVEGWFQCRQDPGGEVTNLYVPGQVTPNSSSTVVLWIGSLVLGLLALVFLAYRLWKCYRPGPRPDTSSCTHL

T4: human MAdCAM expressed on cells (human, UniProt Q13477 19-382)
T4 construct: whole, on cells; also called MADCAM1
T4 sequence (looked up): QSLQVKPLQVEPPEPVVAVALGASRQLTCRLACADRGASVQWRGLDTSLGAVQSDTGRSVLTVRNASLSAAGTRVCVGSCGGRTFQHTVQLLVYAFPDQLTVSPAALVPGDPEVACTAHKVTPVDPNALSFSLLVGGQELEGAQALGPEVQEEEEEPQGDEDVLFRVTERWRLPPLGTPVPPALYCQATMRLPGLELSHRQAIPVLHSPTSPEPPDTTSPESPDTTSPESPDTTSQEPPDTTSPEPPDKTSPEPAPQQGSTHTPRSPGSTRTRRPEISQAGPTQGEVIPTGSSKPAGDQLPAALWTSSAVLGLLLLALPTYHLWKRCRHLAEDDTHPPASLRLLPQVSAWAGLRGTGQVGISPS

B1: MAdCAM antibody Clone ID 7 of Table 6 (scFv) (scFv)
scFv: QVQLVQSGAEVKKPGASVKVSCKASGYTFTGYHIHWVRQAPGQGLEWMGIINPSGGSTIYAQKFQGRVTMTRDTSTSTVYMELSSLRSEDTAVYYCAKDWSSWYLGPFDYWGQGTLVTVSSGGGGSGGGGSGGGGSGGGGSDIQMTQSPSSLSASVGDRVTITCRASQNISSSLNWYQQKPGKAPKLLIYAASSLQSGVPSRFSGSGSGTDFTLTISSLQPEDFATYYCQQSYTTPYTFGQGTKVEIK
B2: MAdCAM antibody Clone ID 19 of Table 6 (scFv) (scFv)
scFv: EVQLLESGGGLVQPGGSLRLSCAASGFTFDDYAMHWVRQAPGKGLEWVSGISWNSGSIGYADSVKGRFTISRDNSKNTLYLQMNSLRAEDTAVYYCAKDIVAAGHYYYGMDVWGQGTTVTVSSGGGGSGGGGSGGGGSGGGGSDIQMTQSPSSLSASVGDRVTITCQASQDISNYLNWYQQKPGKAPKLLIYDASNLETGVPSRFSGSGSGTDFTLTISSLQPEDFATYYCQQSYSTPLTFGGGTKVEIK
B3: MAdCAM antibody Clone ID 59 of Table 6 (scFv) (scFv)
scFv: EVQLLESGGGLVQPGGSLRLSCAASGFTFSDFWMHWVRQAPGKGLEWISYISGDSGYTNYADSVKGRFTISRDNSKNTLYLQMNSLRAEDTAVYYCARDRPYYYYMDVWGKGTTVTVSSGGGGSGGGGSGGGGSGGGGSDIQMTQSPSSLSASVGDRVTITCRASQSVSRSLAWYQQKPGKAPKLLIYAASSLQSGVPSRFSGSGSGTDFTLTISSLQPEDFATYYCQQYKSYPVTFGQGTKVEIK
B4: MAdCAM antibody Clone ID 4 of Table 6 (scFv) (scFv)
scFv: QVQLVQSGAEVKKPGASVKVSCKASGGTFSSYAISWVRQAPGQGLEWMGSINPSGDTTSYAQKFQGRVTMTRDTSTSTVYMELSSLRSEDTAVYYCAKDKAQWLVGYFDYWGQGTLVTVSSGGGGSGGGGSGGGGSGGGGSDIQMTQSPSSLSASVGDRVTITCQASQDISNSLNWYQQKPGKAPKLLIYAASSLQSGVPSRFSGSGSGTDFTLTISSLQPEDFATYYCQQSYSSVITFGQGTKVEIK
B5: MAdCAM antibody Clone ID 9 of Table 6 (scFv) (scFv)
scFv: EVQLLESGGGLVQPGGSLRLSCAASGFTFSDYYMNWVRQAPGKGLEWVSVIGESGGSTYYADSVKGRFTISRDNSKNTLYLQMNSLRAEDTAVYYCAADPVSRWPKHGGGDYWGQGTLVTVSSGGGGSGGGGSGGGGSGGGGSDIQMTQSPSSLSASVGDRVTITCRASQGISSSLAWYQQKPGKAPKLLIYAASTLQSGVPSRFSGSGSGTDFTLTISSLQPEDFATYYCQQSYSTPWTFGQGTKVEIK
B6: MAdCAM antibody Clone ID 6 of Table 6 (scFv) (scFv)
scFv: EVQLLESGGGLVQPGGSLRLSCAASGFTFNNYAFHWVRQAPGKGLEWVSRINSYGTSTTYADSVKGRFTISRDNSKNTLYLQMNSLRAEDTAVYYCAREGPVAGYWYFDLWGQGTLVTVSSGGGGSGGGGSGGGGSGGGGSDIQMTQSPSSLSASVGDRVTITCRASQIIGTNLAWYQQKPGKAPKLLIYGASSLQSGVPSRFSGSGSGTDFTLTISSLQPEDFATYYCQQSYRLPFTFGQGTKVEIK
notes: also called Antibody Clone 6
B7: MAdCAM antibody Clone ID 2 of Table 6 (scFv) (scFv)
scFv: QVQLVQSGAEVKKPGASVKVSCKASGYPFIGYYLHWVRQAPGQGLEWMGIINPSGGSTSYAQKFQGRVTMTRDTSTSTVYMELSSLRSEDTAVYYCAREGRLSYGMDAWGQGTLVTVSSGGGGSGGGGSGGGGSGGGGSDIQMTQSPSSLSASVGDRVTITCRASQSISSYLAWYQQKPGKAPKLLIYGASTLESGVPSRFSGSGSGTDFTLTISSLQPEDFATYYCQQTWGPPFTFGQGTKLEIK
B8: MAdCAM antibody Clone ID 63 of Table 6 (scFv) (scFv)
scFv: EVQLLESGGGLVKPGGSLRLSCAASGFTFDDYAMHWVRQAPGKGLEWVASITSSSAFIDYAASVKGRFTISRDDSKNTLYLQMNSLKTEDTAVYYCARERVDWNSYFDLWGRGTLVTVSSGGGGSGGGGSGGGGSGGGGSEIVMTQSPATLSVSPGERATLSCRASQGISNSYLAWYQQKPGQAPRLLIYGASTRATGIPARFSGSGSGTEFTLTISSLQSEDFAVYYCQQYYTYPPTFGPGTKVDIK
B9: MAdCAM antibody Clone ID 5 of Table 6 (scFv) (scFv)
scFv: EVQLLESGGGLVQPGGSLRLSCAASGFTFSSYWMHWVRQAPGKGLEWVSSISPGGSNIDYADSVKGRFTISRDNSKNTLYLQMNSLRAEDTAVYYCAREVQLSHYDYWGQGTLVTVSSGGGGSGGGGSGGGGSGGGGSDIQMTQSPSSLSASVGDRVTITCRASQGISNSLAWYQQKPGKAPKLLIYGASSLQSGVPSRFSGSGSGTDFTLTISSLQPEDFATYYCQQANSFPFTFGQGTKVEIK
B10: MAdCAM antibody Clone ID 46 of Table 7 (IgG) (antibody, V domains shown)
VH: EVQLLESGGGLVQPGGSLRLSCAASGFSFSSYTMNWVRQAPGKGLEWVSFITSSSRTIYYADSVKGRFTISRDNSKNTLYLQMNSLRAEDTAVYYCARDRRGDYGDSWYFDLWGRGTLVTVSS
VL: EIVMTQSPATLSVSPGERATLSCRASQSVRNYLAWYQQKPGQAPRLLIYGASTRATGIPARFSGSGSGTEFTLTISSLQSEDFAVYYCQQYGSSPLTFGGGTKVEIK
notes: IgG format
B11: MAdCAM antibody Clone ID 79 of Table 7 (IgG) (antibody, V domains shown)
VH: EVQLLESGGGLVKPGGSLRLSCAASGFTFDDYAMHWVRQAPGKGLEWVASITSSSAFIDYAASVKGRFTISRDDSKNTLYLQMNSLKTEDTAVYYCARERVDWNSYFDLWGRGTLVTVSS
VL: EIVMTQSPATLSVSPGERATLSCRASQGISNSYLAWYQQKPGQAPRLLIYGASTRATGIPARFSGSGSGTEFTLTISSLQSEDFAVYYCQQYYTYPPTFGPGTKVDIK
notes: IgG format
B12: MAdCAM antibody Clone ID 75 of Table 7 (IgG) (antibody, V domains shown)
VH: EVQLLESGGGLVQPGGSLRLSCAASGFTFSDFWMHWVRQAPGKGLEWISYISGDSGYTNYADSVKGRFTISRDNSKNTLYLQMNSLRAEDTAVYYCARDRPYYYYMDVWGKGTTVTVSS
VL: DIQMTQSPSSLSASVGDRVTITCRASQSVSRSLAWYQQKPGKAPKLLIYAASSLQSGVPSRFSGSGSGTDFTLTISSLQPEDFATYYCQQYKSYPVTFGQGTKVEIK
notes: IgG format

biological target: T1, human MAdCAM protein; assay: Octet

| binding result | Binder |
| --- | --- |
| binds | B1 |
| binds | B2 |
| binds | B3 |
| binds | B4 |
| binds | B5 |
| binds | B6 |
| binds | B7 |
| binds | B8 |
| binds | B9 |

biological target: T2, mouse MAdCAM protein; assay: Octet

| binding result | Binder |
| --- | --- |
| binds | B1 |
| no binding | B2 |
| binds | B3 |
| binds | B4 |
| binds | B5 |
| no binding | B6 |
| binds | B7 |
| binds | B8 |
| binds | B9 |

biological target: T1, human MAdCAM protein; assay: Octet; remark: another data set of the same source

| binding result | Binder |
| --- | --- |
| binds | B10 |
| binds | B11 |
| binds | B12 |

biological target: T2, mouse MAdCAM protein; assay: Octet; remark: another data set of the same source

| binding result | Binder |
| --- | --- |
| no binding | B10 |
| binds | B11 |
| binds | B12 |

biological target: T3, mouse MAdCAM expressed on cells; assay: cell binding

| binding result | Binder |
| --- | --- |
| binds | B1 |
| no binding | B2 |
| binds | B3 |
| binds | B4 |
| binds | B5 |
| no binding | B6 |
| binds | B7 |
| binds | B8 |
| binds | B9 |

biological target: T4, human MAdCAM expressed on cells; assay: cell binding

| binding result | Binder |
| --- | --- |
| binds | B1 |
| binds | B2 |
| binds | B3 |
| binds | B4 |
| binds | B5 |
| binds | B6 |
| binds | B7 |
| binds | B8 |
| binds | B9 |

biological target: T3, mouse MAdCAM expressed on cells; assay: cell binding; remark: another data set of the same source

| binding result | Binder |
| --- | --- |
| no binding | B10 |
| binds | B11 |
| binds | B12 |

biological target: T4, human MAdCAM expressed on cells; assay: cell binding; remark: another data set of the same source

| binding result | Binder |
| --- | --- |
| binds | B10 |
| binds | B11 |
| binds | B12 |

From patent US20200392228A1 (PANDION OPERATIONS, published 2020)
